Test results: the supplement of paper PMC11780869

Tested on: Bacillus subtilis
Test: cleaved RNA product abundance (RNA/gDNA barcode ratio) relative to median wild-type variant (ratio to wild type); higher = more accumulation of the downstream cleavage product
Conditions: cleavage site: cggR-gapA (positions -7 to +36 mutated)
Outline: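 Reporter mRNAs based on truncated aprE or tetM carried barcoded, mutagenized RNase Y cleavage-site windows built from oligos with a 9% error rate and were integrated into the B. subtilis chromosome. Cultures grew in LB at 37°C from OD600 0.0003 to 0.3. Cleaved RNA was gel-selected, reverse transcribed and barcode-sequenced together with genomic DNA barcodes, and UMIs were collapsed. Cleaved product abundance is the per-construct ratio of RNA to gDNA barcodes, scaled to the median of constructs carrying the unmutated site.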

[1] = experiment (reporter, strain, medium): exp 2b: truncated aprE reporter, strain BJT200
[2] = experiment (reporter, strain, medium): exp 4a: truncated aprE reporter, strain BJT201 with 2% xylose (RNase J1 expressed)
[3] = experiment (reporter, strain, medium): exp 6: tetM reporter, strain 168

## ACAGACGAAGGAGCCGCAAAGAAGTTATTATGGGATGAATAATTCCTCAATATAAATATCTCTCACTTATTTAAA
[1]
  cleaved RNA product abundance: 0.149
[2]
  cleaved RNA product abundance: 0.246

## ACAGACGAAGGAGCCGCAAAGAAGTTATTATGGGATGAATACTCCCTCAATATAAATATCTCTCACTTATTTAAA
[2]
  cleaved RNA product abundance: 0.212

## ACAGACGAAGGAGCCGCAAAGAAGTTATTATGGGATGATTAATCCCTCAATATAAATATCTCTCACTTATTTAAA
[2]
  cleaved RNA product abundance: 0.414

## ACAGACGAAGGAGCCGCAAAGAAGTTATTATGGGATGTATAATCCCTCAATATAAATATCTCTCACTTATTTAAA
[1]
  cleaved RNA product abundance: 0.31

## ACAGACGAAGGAGCCGCAAAGAAGTTATTATGGGATTAATAATCCCTCAATATAAATATCTCTCACTTATTTAAA
[1]
  cleaved RNA product abundance: 0.352
[2]
  cleaved RNA product abundance: 0.307

## ACAGACGAAGGAGCCGCAAAGAAGTTATTATGGGGTGAATAATCCCTCAATATAAATATCTCTCACTTATTTAAA
[2]
  cleaved RNA product abundance: 0.285

## ACAGACGAAGGAGCCGCAAAGAAGTTATTATGGTATGAATAATCCCTCAATATAAATATCTCTCACTTATTTAAA
[1]
  cleaved RNA product abundance: 0.0925
[2]
  cleaved RNA product abundance: 0.14

## ACAGACGAAGGAGCCGCAAAGAAGTTATTATGTGATGAATAATCCCTCAATATAAATATCTCTCACTTATTTAAA
[2]
  cleaved RNA product abundance: 0.131

## ACAGACGAAGGAGCCGCAAAGAAGTTATTATTGGATGAATAATCCCTCAATATAAATATCTCTCACTTATTTAAA
[2]
  cleaved RNA product abundance: 0.149

## ACAGACGAAGGAGCCGCAAAGAAGTTATTCAAGGATGAATAATCCCTCAATATAAATATCTCTCACTTATTTAAA
[1]
  cleaved RNA product abundance: 0.134
[2]
  cleaved RNA product abundance: 0.242

## ACAGACGAAGGAGCCGCAAAGAAGTTATTCAGAGATGAATAATCCCTCAATATAAATATCTCTCACTTATTTAAA
[1]
  cleaved RNA product abundance: 0.167
[2]
  cleaved RNA product abundance: 0.159

## ACAGACGAAGGAGCCGCAAAGAAGTTATTCAGCGATGAATAATCCCTCAATATAAATATCTCTCACTTATTTAAA
[2]
  cleaved RNA product abundance: 0.0886

## ACAGACGAAGGAGCCGCAAAGAAGTTATTCAGGAATGAATAATCCCTCAATATAAATATCTCTCACTTATTTAAA
[1]
  cleaved RNA product abundance: 0.132
[2]
  cleaved RNA product abundance: 0.129

## ACAGACGAAGGAGCCGCAAAGAAGTTATTCAGGCATGAATAATCCCTCAATATAAATATCTCTCACTTATTTAAA
[1]
  cleaved RNA product abundance: 0.0983

## ACAGACGAAGGAGCCGCAAAGAAGTTATTCAGGGAAGAATAATCCCTCAATATAAATATCTCTCACTTATTTAAA
[2]
  cleaved RNA product abundance: 0.697

## ACAGACGAAGGAGCCGCAAAGAAGTTATTCAGGGATAAATAATCCCTCAATATAAATATCTCTCACTTATTTAAA
[2]
  cleaved RNA product abundance: 1.1

## ACAGACGAAGGAGCCGCAAAGAAGTTATTCAGGGATGAACAATCCCTCAATATAAATATCTCTCACTTATTTAAA
[2]
  cleaved RNA product abundance: 0.603

## ACAGACGAAGGAGCCGCAAAGAAGTTATTCAGGGATGAATAATACCTCAATATAAATATCTCTCACTTATTTAAA
[2]
  cleaved RNA product abundance: 0.134

## ACAGACGAAGGAGCCGCAAAGAAGTTATTCAGGGATGAATAATCCATCAATATAAATATCTCTCACTTATTTAAA
[2]
  cleaved RNA product abundance: 0.319

## ACAGACGAAGGAGCCGCAAAGAAGTTATTCAGGGATGAATAATCCCCCAAAATAAATATCTCTCACTTATTTAAA
[2]
  cleaved RNA product abundance: 0.165

## ACAGACGAAGGAGCCGCAAAGAAGTTATTCAGGGATGAATAATCCCTAAATATAAATATCTCTCACTTATTTAAA
[1]
  cleaved RNA product abundance: 0.695
[2]
  cleaved RNA product abundance: 0.713

## ACAGACGAAGGAGCCGCAAAGAAGTTATTCAGGGATGAATAATCCCTCAATATAAAAATCTCTCACTTATTTAAA
[2]
  cleaved RNA product abundance: 0.461

## ACAGACGAAGGAGCCGCAAAGAAGTTATTCAGGGATGAATAATCCCTCAATATAAATAACTCTCACTTATTTAAA
[1]
  cleaved RNA product abundance: 0.615

## ACAGACGAAGGAGCCGCAAAGAAGTTATTCAGGGATGAATAATCCCTCAATATAAATATCTCTCACTTATTTAAA
[1]
  cleaved RNA product abundance: 0.766
[2]
  cleaved RNA product abundance: 0.882
[3]
  cleaved RNA product abundance: 0.609

## ACAGACGAAGGAGCCGCAAAGAAGTTATTCAGGGATGAATAATCCGTCAATATAAATATCTCTCACTTATTTAAA
[1]
  cleaved RNA product abundance: 0.117

## ACAGACGAAGGAGCCGCAAAGAAGTTATTCAGGGATGAATAATTCCTCAATATAAATATCTCTCACTTATTTAAA
[2]
  cleaved RNA product abundance: 0.513

## ACAGACGAAGGAGCCGCAAAGAAGTTATTCAGGGATGAATTATCCCTCAATATAAATATCTCTCACTTATTTAAA
[1]
  cleaved RNA product abundance: 0.56
[2]
  cleaved RNA product abundance: 0.629

## ACAGACGAAGGAGCCGCAAAGAAGTTATTCAGGGATGATTAATCCCTCAATATAAATATCTCTCACTTATTTAAA
[1]
  cleaved RNA product abundance: 0.532

## ACAGACGAAGGAGCCGCAAAGAAGTTATTCAGGGATTAATAATCCCTCAATATAAATATCTCTCACTTATTTAAA
[1]
  cleaved RNA product abundance: 0.815
[2]
  cleaved RNA product abundance: 1

## ACAGACGAAGGAGCCGCAAAGAAGTTATTCAGGGTTGAATAATCCCTCAATATAAATATCTCTCACTTATTTAAA
[2]
  cleaved RNA product abundance: 0.412

## ACAGACGAAGGAGCCGCAAAGAAGTTATTCAGGTATAAATAATCCCTCAATATAAATATCTCTCACTTATTTAAA
[2]
  cleaved RNA product abundance: 0.118

## ACAGACGAAGGAGCCGCAAAGAAGTTATTCAGGTATGAATAATCCCTCAATATAAATATCTCTCACTTATTTAAA
[2]
  cleaved RNA product abundance: 0.161

## ACAGACGAAGGAGCCGCAAAGAAGTTATTCAGGTATGTATAATCCCTCAATATAAATATCTCTCACTTATTTAAA
[2]
  cleaved RNA product abundance: 0.143

## ACAGACGAAGGAGCCGCAAAGAAGTTATTCATGGATGAATAATCCCTCAATATAAATATCTCTCACTTATTTAAA
[2]
  cleaved RNA product abundance: 0.137

## ACAGACGAAGGAGCCGCAAAGAAGTTATTCTGGGATGAATAATCCCTCAATATAAATATCTCTCACTTATTTAAA
[2]
  cleaved RNA product abundance: 0.742

## ACAGACGAAGGAGCCGCAAAGAAGTTATTGAGGCATGAATAATCCCTCAATATAAATATCTCTCACTTATTTAAA
[1]
  cleaved RNA product abundance: 0.0906
[2]
  cleaved RNA product abundance: 0.0717

## ACAGACGAAGGAGCCGCAAAGAAGTTATTGAGGGATGAATAATCCCTAAATATAAATATCTCTCACTTATTTAAA
[2]
  cleaved RNA product abundance: 0.897

## ACAGACGAAGGAGCCGCAAAGAAGTTATTGAGGGATGAATAATCCCTCAATATAAATATCTCTCACTTATTTAAA
[1]
  cleaved RNA product abundance: 0.116
[2]
  cleaved RNA product abundance: 0.0555
[3]
  cleaved RNA product abundance: 0.247

## ACAGACGAAGGAGCCGCAAAGAAGTTATTGAGGGATGAATAATCCCTCAATATACATATCTCTCACTTATTTAAA
[2]
  cleaved RNA product abundance: 0.0596

## ACAGACGAAGGAGCCGCAAAGAAGTTATTGAGGGATGAATACTCCCTCAATATAAATATCTCTCACTTATTTAAA
[2]
  cleaved RNA product abundance: 0.0909

## ACAGACGAAGGAGCCGCAAAGAAGTTATTGAGGGATGAATTATCCCTCAATATAAATATCTCTCACTTATTTAAA
[2]
  cleaved RNA product abundance: 0.0896

## ACAGACGAAGGAGCCGCAAAGAAGTTATTGAGGGCTGAATAATCCCTCAATATAAATATCTCTCACTTATTTAAA
[2]
  cleaved RNA product abundance: 0.167

## ACAGACGAAGGAGCCGCAAAGAAGTTATTGCGGGATGAATAATCCCTCAATATAAATATCTCTCACTTATTTAAA
[2]
  cleaved RNA product abundance: 0.869

## ACAGACGAAGGAGCCGCAAAGAAGTTATTTAAGGATGAATAATCCCTCAATATAAATATCTCTCACTTATTTAAA
[1]
  cleaved RNA product abundance: 0.125
[2]
  cleaved RNA product abundance: 0.182

## ACAGACGAAGGAGCCGCAAAGAAGTTATTTAAGGGATGAATAATCCCTCAATATAAATATCTCTCACTTATTTAA
[2]
  cleaved RNA product abundance: 0.315

## ACAGACGAAGGAGCCGCAAAGAAGTTATTTAGCGATGAATAATCCCTCAATATAAATATCTCTCACTTATTTAAA
[1]
  cleaved RNA product abundance: 0.117
[2]
  cleaved RNA product abundance: 0.0809

## ACAGACGAAGGAGCCGCAAAGAAGTTATTTAGGAATGAATAATCCCTCAATATAAATATCTCTCACTTATTTAAA
[2]
  cleaved RNA product abundance: 0.127

## ACAGACGAAGGAGCCGCAAAGAAGTTATTTAGGCATGAATAATCCCTCAATATAAATATCTCTCACTTATTTAAA
[1]
  cleaved RNA product abundance: 0.0926
[2]
  cleaved RNA product abundance: 0.135

## ACAGACGAAGGAGCCGCAAAGAAGTTATTTAGGGAAGAATAATCCCTCAATATAAATATCTCTCACTTATTTAAA
[2]
  cleaved RNA product abundance: 0.572

## ACAGACGAAGGAGCCGCAAAGAAGTTATTTAGGGATAAATAATCCCTCAATATAAATATCTCTCACTTATTTAAA
[1]
  cleaved RNA product abundance: 0.577
[2]
  cleaved RNA product abundance: 0.696

## ACAGACGAAGGAGCCGCAAAGAAGTTATTTAGGGATCAATAATCCCTCAATATAAATATCTCTCACTTATTTAAA
[2]
  cleaved RNA product abundance: 0.787

## ACAGACGAAGGAGCCGCAAAGAAGTTATTTAGGGATGAACAATCCCTCAATATAAATATCTCTCACTTATTTAAA
[2]
  cleaved RNA product abundance: 0.85

## ACAGACGAAGGAGCCGCAAAGAAGTTATTTAGGGATGAAGAATCCCTCAATATAAATATCTCTCACTTATTTAAA
[2]
  cleaved RNA product abundance: 0.607

## ACAGACGAAGGAGCCGCAAAGAAGTTATTTAGGGATGAATAACCCCTCAATATAAATATCTCTCACTTATTTAAA
[2]
  cleaved RNA product abundance: 0.288

## ACAGACGAAGGAGCCGCAAAGAAGTTATTTAGGGATGAATAATACCTCAATATAAATATCTCTCACTTATTTAAA
[2]
  cleaved RNA product abundance: 0.141

## ACAGACGAAGGAGCCGCAAAGAAGTTATTTAGGGATGAATAATCACTCAATATAAATATCTCTCACTTATTTAAA
[2]
  cleaved RNA product abundance: 0.137

## ACAGACGAAGGAGCCGCAAAGAAGTTATTTAGGGATGAATAATCCATCAATATAAATATCTCTCACTTATTTAAA
[2]
  cleaved RNA product abundance: 0.34

## ACAGACGAAGGAGCCGCAAAGAAGTTATTTAGGGATGAATAATCCCACAATATAAATATCTCTCACTTATTTAAA
[2]
  cleaved RNA product abundance: 0.268

## ACAGACGAAGGAGCCGCAAAGAAGTTATTTAGGGATGAATAATCCCTAAATATAAATATCTCTCACTTATTTAAA
[1]
  cleaved RNA product abundance: 0.353

## ACAGACGAAGGAGCCGCAAAGAAGTTATTTAGGGATGAATAATCCCTCAAGATAAATATCTCTCACTTATTTAAA
[1]
  cleaved RNA product abundance: 0.16

## ACAGACGAAGGAGCCGCAAAGAAGTTATTTAGGGATGAATAATCCCTCAATACAAATATCTCTCACTTATTTAAA
[2]
  cleaved RNA product abundance: 0.0541
